Assay: label from the status in PepcDB records

| Sequence | protein production |
| --- | --- |
| VKFLTVNDDILSMPQARNFCASAGGYLADDLGDDKNNFYSSIAANTQFWIGLFKNSDGQFYWDRGQGINPDLLNQPITYWANGEPSNDPTRQCVYFDGRSGDKSKVWTTDTCATPRPFICQKHRYDSDHKPNTIGDA | not failed |
| MMITRGGAKAAKSLLVAAGPRLFSTVRTVSSHEALSASHILKPGVTSAWIWTRAPTIGGMRFASTITLGEKTPMKEEDANQKKTENESTGGDAAGGNNKGDKGIASYWGVEPNKITKEDGSEWKWNCFRPWETYKADITIDLKKHHVPTTFLDRIAYWTVKSLRWPTDLFFQRRYGCRAMMLETVAAVPGMVGGMLLHCKSLRRFEQSGGWIKALLEEAENERMHLMTFMEVAKPKWYERALVITVQGVFFNAYFLGYLISPKFAHRMVGYLEEEAIHSYTEFLKELDKGNIENVPAPAIAIDYWRLPADATLRDVVMVVRADEAHHRDVNHFASDIHYQGRELKEAPAPIGYH | failed |
| MSRTILQPGQIEAAANIPPHLHQPSRDLFARRGERLLQLAEGHPMGDYLRLVAGLCRLQQALLDNPPALAPLDPERLRKSREHGMPPLAYDLLVREGAWLPWLDALLAGYPAPANAAVGAALEQLREAEEGQRKAWAIALLSGQFDLLPAALVPFLGAALQVAWSHWLLGLEEGAVVETESRTLCPACGSPPMAGMIRQGGKETGLRYLSCSLCACEWHYVRIKCSHCEESKHLAYLSLEHDGQPAEKAVLRAETCPSCQGYLKQFYLEFDRHADALADDLASLALDMRLAEDGYLRRSPNLLLAPGGE | not failed |
| SSEDLAKQLASYKAQLQQVEAALSGNGENEDLLKLKKDLQEVIELTKDLLSTQPSETLASSDSFASTQPTHSWKVGDKCMAVWSEDGQCYEAEIEEIDEENGTAAITFAGYGNAEVTPLLNLKPVEEGRKAKEDSGNKPMSKKEMIAQQREYKKKKALKKAQRIKELEQEREDQKVKWQQFNNRAYSKNKKGQVKRSIFASPESVTGKVGVGTCGIADKPMTQYQDTSKYNVRHLMPQ | failed |
| MEFEVKKTFGKARLGVMKLHHGAVETPVFMPVGTNASVKLLTPRDLEEAGAEIILSNTFHLMLKPGVEIIKLHRGLHNFMGWKRPILTDSGGFQVFSLPKIRIDDEGVVFRSPIDGSKVFLNPEISMEVQIALGSDICMVFDHCPVPDADYEEVKEATERTYRWALRSKKAFKTENQALFGIVQGGIYPDLRRESALQLTSIGFDGYAIGGLSIGEERSLTLEMTEVTVEFLPEDKPRYFMGGGSPELILELVDRGVDMFDSVFPTRIARHGTALTWNGKLNLKASYNKRSLEPVDERCGCYTCKNFTRSYIHHLFDRGEVLGQILLTIHNINFMISLMKEVRRSIESGTFKELKSKVVEVYSSGGVNV | not failed |
| AELQMLLEEEIPSGKRALIESYQNLTRVADYCENNYIQATDKRKALEETKAYTTQSLASVAYQINALANNVLQLLDIQASQLRRMESSINHISQTVDIHKEKVARREIGILTTNKNTSRTHKIIAPANMERPVRYIRKPIDYTVLDDVGHGVKWLKAKHGNNQPARTGTLSRTN | failed |
| MTPDFQIVTQRLQLRLITADEAEELVQCIRQSQTLHQWVDWCHALFSQQEAEQFIQATRLNWVKAEAYGFGVFERQTQTLVGMVAINEFYHTFNMASLGYWIGDRYQRQGYGKEALTALILFCFERLELTRLEIVCDPENVPSQALALRCGANREQLAPNRFLYAGEPKAGIVFSLIP | not failed |
| ANGTVATAAIQPKKVKGVGFGDIFKDKPIKLRPRSIEVENDFLPVEKTIGKKLPATTATPDSSKTEMDSRTKSKDYCKVIFPYEAQNDDELTIKEGDIVTLINKDCIDVGWWEGELNGRRGVFPDNFVKLLPPDFEKEGNR | failed |
| MTAYWIAHVTIHDMQQYQEYMKLAPAAFQKYGAKFLARGGESVCVEGQAYQRHVIIEFPDLATAQQCYDSEEYKQARLAREGCADVMISFVEGLPTN | failed |
| MEVLRYRSRPIVGGEAEGPAVVIDSLSFYGEVDPETGVTSGGKPLAGRVAAIRRSRGSTVGSYVIYALKENGVAPLAILMERAEPIVIAGCVLAGIPLYDGLPPEFFERVRDGYRVRVHSDGLVEVLGPGQP | failed |
| SDIGQVIHPDDFDKAAADDYVLHEDGEKIYFLIKSKTDEYCFTNLALVHLDGESAVSSKRVLYRYPYAHYPIRHVMFETAGTVDLDVEIKFEIGGKHYSIDVDKKQLEHVKDLYKALLAIAEKQYEGQKMLEFANSSLNHSVTILGGLRQGDMNVPQTFKDLSQESFDWLQGHYYKWNQKDFGSFYEKYINN | not failed |
| MVVVTGREPDSRRQDGAMSSSDAEDDFLEPATPTATQAGHALPLLPQEFPEVVPLNIGGAHFTTRLSTLRCYEDTMLAAMFSGRHYIPTDSEGRYFIDRDGTHFGDVLNFLRSGDLPPRERVRAVYKEAQYYAIGPLLEQLENMQPLKGEKVRQAFLGLMPYYKDHLERIVEIARLRAVQRKARFAKLKVCVFKEEMPITPYECPLLNSLRFERSESDGQLFEHHCEVDVSFGPWEAVADVYDLLHCLVTDLSAQGLTVDHQCIGVCDKHLVNHYYCKRPIYEFKITWW | failed |
| PKSQACEPSEPEIEIKLPKLRTLDVFSGCGGLSEGFHQAGISDTLWAIEMWDPAAQAFRLNNPGSTVFTEDCNILLKLVMAGETTNSRGQRLPQKGDVEMLCGGPPCQGFSGMNRFNSRTYSKFKNSLVVSFLSYCDYYRPRFFLLENVRNFVSFKRSMVLKLTLRCLVRMGYQCTFGVLQAGQYGVAQTRRRAIILAAAPGEKLPLFPEPLHVFAPRACQLSVVVDDKKFVSNITRLSSGPFRTITVRDTMSDLPEVRNGASALEISYNGEPQSWFQRQLRGAQYQPILRDHICKDMSALVAARMRHIPLAPGSDWRDLPNIEVRLSDGTMARKLRYTHHDRKNGRSSSGALRGVCSCVEAGKACDPAARQFNTLIPWCLPHTGNRHNHWAGLYGRLEWDGFFSTTVTNPEPMGKQGRVLHPEQHRVVSVRECARSQGFPDTYRLFGNILDKHRQVGNAVPPPLAKAIGLEIKLCML | failed |
| DLDGLLQRTVERARDMLDADSAFLLLATDDETELEVRASTGLPSARQRFARVPVDAGPGRYGSARMPAVHDDLTAVPGAVPLLSGTGMRSVVTVPLKVEGRLTGSLGVAAESPSRYSNEEALRLQFAADRIALAVESA | failed |
| MSDPAIAVLPYGMKLGPALSGLPLDQVNWPLGCPERLVGKTLGDLGAGDHLLVYPRTGTHFQLSRGTRARISLIMAEPAVIHAKHYALLRVTWRRFHRVLTFNQAAVDRLPNARLLLFGSTWVPEWQSLTPEKVAQCSLIASAKRDSTGHKLRHAVVDWVRASDQDVAVLGRGYQPFDSKADGLAPYRYSVVIENVQERNYFSEKLLDAVFCETVPIYWGCPNIADFVDTTAMILCTREEDIRRAVAEMSAEDYAARLPALRALKQQLAPYAAHEARAARMILDELLEHHHHHH | not failed |
| DVTYDGHPVPGSPYTVEASLPPDPSKVKAHGPGLEGGLVGKPAEFTIDTKGAGTGGLGLTVEGPCEAKIECSDNGDGTCSVSYLPTKPGEYFVNILFEEVHIPGSPFKADIEMPFDPS | not failed |
| MQAVHGRSRKPADPAYQAGLAEELRQSYGRAGLIELYGRFATGDGVVDSLMRKAIWQAITRRCGEGLQVASGAGFKHPETFEIGDGVFIGAQAYIQGRYDGTCVIGDNVWIGPMAYFDARDLVIEDSVGWGPGAKVLGSTHTALPIDVPIIRTDLEIRPVRICAEADIGTNATILPGVTIGKGAIVGAGAVVVSDVEPFSVAAGVPAKFIRWRSENDPMTNMSREGRS | failed |
| EELIEIREARMDDLDTIAKFNYNLAKETEGKELDMDVLTKGVKALLLDERKGKYHVYTVFDKVVAQIMYTYEWSDWRNGNFLWIQSVYVDKEYRRKGIFNYLFNYIKNICDKDENIVGMRLYVEKENINAKATYESLNMYECDYNMYEYEVIHS | not failed |
| MLFFADRSPFVRPLSGYAPVTPAAPRSTGSAAAPPPSPAVLDDRSGTEGDVTPMMAQYLAVKAAHPDCLLFYRMGDFYEMFFEDAVKAAETLDIALTKRGRHAGADIPMCGVPIHSHEGYLSRLIRAGIKVAICEQMEDPAEARRQRGYKAVVRRDVIRVVTAGTLTEDELLDARAHNYLAAVVRLRDAVGMAWVDVSTGDLVAQPLAEADIGPALARLAPGEVLMPEKLAGDPALREILAPLAGRISPLPASRFDSENARKRVEGLFGVKALDGFGGFGRAEVAAIGALIDYVELTQVGRLPRLSPPRRLSLGAILEIDGATRRNLELTETLGGGRKGSLLARIDCTVTGAGARLLAERLAAPLTDPAQIGARLDGVGFLVSAERVRGDLRDTLRGCPDIARALSRLSLGRGGPRDLAAIGEALSRIPALRVLVVGAGLGEPPTELTAALIDLGSHEGLVDLLGRALDADLPLLARDGGFIRPGYDAGLDELRALRDEGRRLIAGLQARYASETAIPALKIKHNNVLGYFIEVAAGRADKLMAAGGPFLHRQTLASQVRFTTVELSELEDKIRGAADKALALEQALFATLCAEVLGCAADIARAANGLACLDVAAALADLAARERYARPVVDNSTAFRIHKGRHPVVEAALADQAGPAFVANDCDLAPDQRLWLLTGPNMAGKSTFLRQNALIAVLAQMGSFVPAESAEIGVIDRLFSRVGAADDLARGRSTFMVEMVETAAILNQATERSLVILDEIGRGTATYDGLSIAWATVESLHDATRCRALFATHYHELTALASRLDRLSCHTLRIKEWKDQVVFLHEVGPGAADRSYGIHVAKLAGLPAAVIARAEQVLAILEKGDASSAATRLADDLPLFAAARPRAGLPTPPPGPHPLAEALNAINPDEMTPREALDALYRLKAVMKRE | failed |
| MRFLFLLFIVFPAIEIGIFLFLGNLIGILPTVLFMILTGIIGAAAAKKQGTEVYYKVQRDLQYGKMPGEAIADGLCIFIGGLLLMLPGFLSDLAGACLLIPFTRGWCKPILFKWLRGMSKNKRIIIK | failed |
| MRIAILGGGVAGSTLAYLLSRINYEVTIFDINQHYVKPCGDIVPNIYTPPFNWKETFGIRRFSFYIDGEKIYDVEYRHTKWLVIDKWKWINDMRKSSKVIVTHDNNAKEFDYVIDSRGPYPMDREVVYTTRAIIETEEFDDEAILEFNTRYTGFYWIFPSKENEYNIGAGFLEYKNSKELLNYYLRKRFKNFEVKDIRGAPISIGSVKNKKLRIGEARGLVFPLSGEGIRPSAISAEYAFEAIHKEKDLDGFLNEKLSIIEKRIKIQKMLLDLYRYSSLNLRKTFMRIFFKNEVLIDTYLEDKMDLNGIIESLKSVRANGGIIRKFEEQERLEHHHHHH | failed |
| NGVWVIGEQREGKINPVTIELIGEGRKLADQLGKELAVVIAGYEVEKEVKELLHYSVDKVYYINDPLLKDFTTDGYAISIANLIERKKPEVVLVGATSIGRDIAPRIAGKVGTGLTADCTKLEIDSTDNKLLQTRPAFGGNLMATIVCPKNRPQMSTVRPGVMAKAVRNESETGILEVVTPELTEKMIRTRLVEILPQEKKSVN | not failed |
| MLKTYQKLLAMGIFLIVLCSGNAAFAATNQVGGLSNVGFFHDYLIEPFSALLKGVAGLFHGEYGLSIILVTIIVRIVVLPLFVNQFKKQRIFQEKMAVIKPQVDSIQVKLKKTKDPEKQKELQMEMMKLYQEHNINPLAMGCLPMLIQSPIMIGLYYAIRSTPEIASHSFLWFSLGQSDILMSLSAGIMYFVQAYIAQKLSAKYSAVPQNPAAQQSAKLMVFIFPVMMTIFSLNVPAALPLYWFTSGLFLTVQNIVLQMTHHKSKKTAALTESVK | failed |
| MTRIAIVGAGPAGLSLAYFLKGSRKVEATVYESMPEPGLKPCAWGLITGIENIIPIPNETIISEIRGFRIYLDNKLVFDIRTDNKLGYIIDKPLFLKRLSQEVNVEFNSKVVKKDDKYYINDKSLDHDKVIFATGHYSVSKSMSIPAIQYITDYEIDKEVVEFYFYSGFLGYAWVFPDREGSKIGIGGYAEVPELKERLKQILKGRIRTFHGARVTDYGVIEDRLDGNYTGEALGTVYAITGEGIRPSIISSKILADSILNRKDFKKEFKKSKLYWSLNWHAKIIKMTKENDPGTARLSKALLNNDPQLILKFAIGEFNRVDLIKIFGRSLILEHHHHHH | not failed |

— a protein production outcome set (Wang et al. 2014)
